Measurements as given in paper PMC12609441, “Comparative Preclinical Evaluation of the Tumor-Targeting Properties of Radioiodine and Technetium-Labeled Designed Ankyrin Repeat Proteins for Imaging of Epidermal Growth Factor Receptor Expression in Malignant Tumors” (International Journal of Molecular Sciences, 2025).

Target: T1, epidermal growth factor receptor (EGFR) (human (endogenous in A-431, DU-145, …, UniProt P00533 25-1210))
T1 construct: also called ErbB1; HER1
Assay: radioligand binding; saturation assay on living A-431 cells; eight concentrations of radiolabeled protein 0.22 to 40 nM, 4 h at 4 °C; nonspecific binding with 50-fold molar excess of unlabeled (HE)3-E01; nonlinear regression
Settings: one partner purified

| Binder | Kd [nM] |
| --- | --- |
| [^99mTc]Tc-(HE)3-E01 (designed binder, [^99mTc]Tc(CO)3^+ with the (HE)3 tag as a chelator at the N-terminus, DARPin E01 with the N-terminal (HE)3 tag; also called DARPin (HE)3-E01 labeled with [^99mTc]Tc(CO)3; technetium-labeled variant; source: E. coli, purified; labeled with [^99mTc]Tc(CO)3, isolated on NAP-5 size-exclusion column; not shown: (HE)3, N-terminal, kept) MRGSHEHEHEGSDLGKKLLEAARAGQDDEVRILMANGADVNADDTWGWTPLHLAAYQGHLEIVEVLLKNGADVNAYDYIGWTPLHLAADGHLEIVEVLLKNGADVNASDYIGDTPLHLAAHNGHLEIVEVLLKHGADVNAQDKFGKTAFDISIDNGNEDLAEILQKLN | 4.9 ± 0.5 |
| [^123I]I-(HE)3-E01-PIB (designed binder, [^123I]I-para-iodobenzoate (PIB) conjugated to the N-terminal or one of eight lysine amino groups (site-unspecific), DARPin E01 with the N-terminal (HE)3 tag; source: E. coli, purified; not shown: (HE)3, N-terminal, kept) MRGSHEHEHEGSDLGKKLLEAARAGQDDEVRILMANGADVNADDTWGWTPLHLAAYQGHLEIVEVLLKNGADVNAYDYIGWTPLHLAADGHLEIVEVLLKNGADVNASDYIGDTPLHLAAHNGHLEIVEVLLKHGADVNAQDKFGKTAFDISIDNGNEDLAEILQKLN | 2.5 ± 0.5 |
